Reference: the supplement of paper PMC12667976

B1: library; numbered along this chain (parent)
chain: MATDAALRRLLRLHRTEIAVAVDSAFPLLHALADHDVVPEDKFQETLHLKEKEGCPQAFHALLSWLLTQDSTAILDFWRVLFKDYNLERYGRLQPILDSFPKDVDLSQPRKGRKPPAVPKALVPPPRLPTKRKASEEARAAAPAALTPRGTASPGSQLKAKPPKKPESSAEQQRLPLGNGIQTMSASVQRAVAMSSGDVPGARGAVEGILIQQVFESGGSKKCIQVGGEFYTPSKFEDSGSGKNKARSSSGPKPLVRAKGAQGAAPGGGEARLGQQGSVPAPLALPSDPQLHQKNEDECAVCRDGGELICCDGCPRAFHLACLSPPLREIPSGTWRCSSCLQATVQEVQPRAEEPRPQEPPVETPLPPGLRSAGEEVRGPPGEPLAGMDTTLVYKHLPAPPSAAPLPGLDSSALHPLLCVGPEGQQNLAPGARCGVCGDGTDVLRCTHCAAAFHWRCHFPAGTSRPGTGLRCRSCSGDVTPAPVEGVLAPSPARLAPGPAKDDTASHEPALHRDDLESLLSEHTFDGILQWAIQSMARPAAPFPS

Variants of: B1
Test: AIRE transcriptional activation functional score (insulin promoter-GFP; nonsense median 0, synonymous median 1) (normalised score); higher = higher AIRE activity (more reporter activation)
Details: with insulin promoter-GFP reporter in HEK293
Summary of the method: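 Codon-optimized AIRE NNN-codon libraries (three regions) were integrated by Bxb1 recombinase into Flp-In T-REx HEK293 landing-pad cells carrying an insulin core promoter-GFP reporter. Integrants (mCherry+, BFP−) sorted at day 7 were expanded 7 days; top 10% GFP and unselected integrant populations were tile-sequenced. Functional score is select versus non-select variant enrichment, wild-type subtracted. Variants needed 10 counts per million in non-select; scores were rescaled to nonsense median 0 and synonymous median 1, then averaged over biological replicates.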

AIRE transcriptional activation functional score: each site, then its substitutions
F453: E -0.452; G 0.315; H 0.147; I 0.235; K -0.248; L 0.17; M 0.268; N 0.22; P 0.207; Q -0.136; R 0.106; S 0.166; T 0.101; V 0.154; W 1.24; Y 0.32
H454: A -0.16; C 0.499; D 0.289; E 0.0475; F 0.117; G 0.0883; I -0.0282; K 0.0788; L -0.161; M -0.148; N -0.0603; P 0.129; Q 0.0498; R -0.0692; S -0.00319; T 0.0122; V 0.0829; W 0.31; Y 0.205
W455: A 1.1; C 1.09; D 0.9; E 1.17; F 1.3; G 0.965; H 0.823; I 0.29; K 0.572; L 1.03; M 0.774; N 1.34; P 1.3; Q 1.09; R 0.879; S 0.675; T 0.727; V 1.17; Y 0.988
R456: A 1.16; C 1.3; D 0.851; E 1.24; F -0.0642; G 1.27; H 1.2; I 1.1; K 0.0856; L 1.04; N 0.016; P 1.1; Q 1.13; S 0.726; T 1.32; V -0.245; W -0.304; Y 1.51
C457: A 0.0339; D 0.0222; E 0.0401; F 0.264; G 0.0376; H 0.798; I -0.23; L -0.0524; M -0.234; P 0.211; Q 0.613; R -0.0861; S -0.11; T -0.0599; V 0.0733; W 0.0502; Y 0.105
H458: A 0.981; C 1.02; D 1.4; E 0.661; F 0.227; G 0.842; I -0.227; K 0.374; L 0.474; M 0.387; N 0.71; P 0.0561; Q 0.165; R 0.586; S 0.164; T 1.16; V 0.655; Y 0.864
F459: A 0.0803; C 0.343; D 0.929; E 0.803; G 0.834; H 1; I 0.371; K 0.78; L 0.464; N 1.27; P 0.572; Q 1.14; R 0.444; S 0.591; T 0.589; V 0.585; W 0.395; Y 1.3
P460: A 1.14; C -0.358; D 0.0955; E 1.16; F 0.995; G 0.909; H 1.05; I 1.01; K 0.952; L 0.827; M 1.17; N 1.07; Q 0.787; R 0.824; S 0.714; T 0.871; V 0.608; Y 0.38
A461: C 0.883; D 0.676; E 0.952; F 1.21; G 1.29; H 1.23; I 0.816; K 1.18; L 1.28; M 1.27; N 1.38; P 1.19; Q 0.964; R 0.878; S 1.22; T 0.39; V 1.17; W 1.01; Y 1.16
G462: A 0.924; C 0.984; D 0.731; E 0.465; F 1.26
